# Experimental data as given in PMC1238745 (2005).
# T1: Bad BH3 peptide BH3 (Homo sapiens, UniProt Q92934)
# T1 chain: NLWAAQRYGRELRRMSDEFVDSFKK
# T2: Bak BH3 peptide BH3 (Homo sapiens, UniProt Q16611)
# T2 chain: GQVGRQLAIIGDDINR
# T3: Bax BH3 peptide BH3 (Homo sapiens, UniProt Q07812)
# T3 chain: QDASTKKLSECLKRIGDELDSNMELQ
# What was measured:
# Experiment in all cases: NMR
# [1] = molecular target: T1, Bad BH3 peptide BH3
# [2] = molecular target: T2, Bak BH3 peptide BH3
# [3] = molecular target: T3, Bax BH3 peptide BH3
binder,measurement,setting,value
v-Bcl-2 (protein) MSHKKSGTYWATLITAFLKTVSKVEELDCVDSAVLVDVSKIITLTQEFRRHYDSVYRADYGPALKNWKRDLSKLFTSLFVDVINSGRIVGFFDVGRYVCEEVLCPGSWTEDHELLNDCMTHFFIENNLMNHFPLEDIFLAQRKFQTTGFTFLLHALAKVLPRIYSGNVIYV,Kd,[1],> 300 µM
same,Kd,[2],< 5 µM
same,Kd,[3],< 5 µM
